Source: patent publication US20080213817

Key:
[1] = tested on: GST-c-Jun fusion protein [GST: P08515]
[2] = target: E3 ubiquitin ligase Itch (UniProt Q8C863)
Chain of E3 ubiquitin ligase Itch (UniProt Q8C863) (Q8C863 2-864): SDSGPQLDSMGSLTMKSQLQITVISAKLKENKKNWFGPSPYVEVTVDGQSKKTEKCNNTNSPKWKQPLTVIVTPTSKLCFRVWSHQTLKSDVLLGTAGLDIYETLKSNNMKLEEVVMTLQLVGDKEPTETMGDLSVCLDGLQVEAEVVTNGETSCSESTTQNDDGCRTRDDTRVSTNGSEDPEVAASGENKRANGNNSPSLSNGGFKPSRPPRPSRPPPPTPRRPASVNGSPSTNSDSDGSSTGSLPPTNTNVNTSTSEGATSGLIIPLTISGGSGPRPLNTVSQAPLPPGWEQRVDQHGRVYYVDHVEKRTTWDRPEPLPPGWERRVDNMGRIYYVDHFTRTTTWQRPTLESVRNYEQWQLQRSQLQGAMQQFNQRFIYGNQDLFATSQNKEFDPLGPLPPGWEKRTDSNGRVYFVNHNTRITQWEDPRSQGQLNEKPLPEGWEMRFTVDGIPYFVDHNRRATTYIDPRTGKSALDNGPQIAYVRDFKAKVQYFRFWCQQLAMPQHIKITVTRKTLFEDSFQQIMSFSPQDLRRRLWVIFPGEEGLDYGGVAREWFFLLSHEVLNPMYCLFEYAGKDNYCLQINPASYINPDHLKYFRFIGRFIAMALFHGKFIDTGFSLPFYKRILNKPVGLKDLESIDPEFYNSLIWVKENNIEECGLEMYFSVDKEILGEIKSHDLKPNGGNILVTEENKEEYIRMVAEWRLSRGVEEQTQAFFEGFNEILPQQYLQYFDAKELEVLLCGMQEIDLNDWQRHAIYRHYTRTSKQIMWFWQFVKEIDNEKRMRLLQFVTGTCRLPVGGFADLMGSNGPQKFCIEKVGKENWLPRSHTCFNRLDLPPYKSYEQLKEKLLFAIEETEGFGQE

Chain of GST-c-Jun fusion protein [GST: P08515] (P08515 whole entry, looked up, the tested form may be a part): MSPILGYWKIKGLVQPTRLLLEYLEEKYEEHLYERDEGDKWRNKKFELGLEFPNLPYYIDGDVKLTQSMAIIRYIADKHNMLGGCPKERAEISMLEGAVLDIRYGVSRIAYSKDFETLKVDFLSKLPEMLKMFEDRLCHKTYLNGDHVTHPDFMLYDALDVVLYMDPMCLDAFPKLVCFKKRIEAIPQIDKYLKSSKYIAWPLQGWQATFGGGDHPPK
Chain of E3 ubiquitin ligase Itch (chain, as listed by the source): as the sequence (Q8C863 2-864) above

**Q.** Which “polyubiquitination of c-Jun (in vitro ubiquitination assay, immunoblot with anti-c-Jun)” value [1] does the source give for E3 ubiquitin ligase Itch here?
**A.** Itch isolated from primary T cells mediated polyubiquitination of c-Jun in a manner dependent on E1 and E2

**Q.** “c-Jun N-terminal kinase 1 (JNK1), active” was tested. Which “Itch phosphorylation (in vitro kinase reaction with [gamma-32P]ATP, autoradiography)” value [2] did it give?
**A.** Incubation of Itch with active JNK1 also led to its efficient phosphorylation
